Biological target: dicamba monooxygenase (DMO) (Stenotrophomonas (formerly Pseudomonas) maltophilia, strain DI-6) (UniProt Q5S3I3)
Experiment: crystal structure

Substance “dicamba monooxygenase (DMO) (from UniProt Q5S3I3 2-339) (enzyme)” has a stoichiometry N of 3.

Reference: publication PMC3109874
